Test results reported in US20100278832A1 (Chugai, published 2010).

Experiments:
[1] = target: T1, His-tagged recombinant human BST2 protein K(47)-D(150) (human, UniProt Q10589 47-150); experiment: Western blot of His-tagged BST2 fragment, 1 µg/ml antibody
T1 construct: Expressed in E. coli BL21(DE3); denatured and reduced for Western blotting; also called lane 4: K(47)------D(150); not shown: N-terminal His tag supplied by vector pET32
T1 sequence: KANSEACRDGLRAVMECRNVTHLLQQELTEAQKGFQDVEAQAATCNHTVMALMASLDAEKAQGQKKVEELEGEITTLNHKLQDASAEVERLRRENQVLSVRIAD
Method: (§1) The His-tagged human BST2 proteins (synthesized as described in A) were each dissolved in sample buffer, and heated at 70° C. for ten minutes. The dissolved proteins were fractionated on a 4-20% SDS-PAGE gradient gel (Invitrogen) and transferred onto PVDF membrane (Millipore). The membrane was blocked with BSA and incubated with 1 μg/ml antibody 4LD or 2000× diluted anti-His tag antibody (Novagen). After reaction with an HRP-labeled anti-mouse IgG antibody (Jackson), ECL Detection Reagent (GE Healthcare) was reacted for chemical luminescence, and the His-tagged human BST2 proteins were detected using LAS-1000 from Fuji Film.

[2] = target: T2, His-tagged recombinant human BST2 protein K(47)-A(149) (human, UniProt Q10589 47-149); experiment: as above
T2 construct: Expressed in E. coli BL21(DE3); denatured and reduced for Western blotting; also called lane 5: K(47)-----A(149); not shown: N-terminal His tag supplied by vector pET32
T2 sequence: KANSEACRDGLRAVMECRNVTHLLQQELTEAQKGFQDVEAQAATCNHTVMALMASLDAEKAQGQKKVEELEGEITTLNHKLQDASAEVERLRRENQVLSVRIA
Method: as §1

[3] = target: T3, His-tagged recombinant human BST2 protein K(47)-I(148) (human, UniProt Q10589 47-148); experiment: as above
T3 construct: Expressed in E. coli BL21(DE3); denatured and reduced for Western blotting; also called lane 6: K(47)----I(148); not shown: N-terminal His tag supplied by vector pET32
T3 sequence: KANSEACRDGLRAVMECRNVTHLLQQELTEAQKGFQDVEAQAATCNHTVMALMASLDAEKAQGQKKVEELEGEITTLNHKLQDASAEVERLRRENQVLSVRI
Method: as §1

[4] = target: T4, His-tagged recombinant human BST2 protein S(131)-Q(180) (human, UniProt Q10589 131-180, not fully specified); experiment: as above
T4 construct: Expressed in E. coli BL21(DE3); denatured and reduced for Western blotting; also called lane 4: S(131)-Q(180); not shown: N-terminal His tag supplied by vector pET32
T4 chain: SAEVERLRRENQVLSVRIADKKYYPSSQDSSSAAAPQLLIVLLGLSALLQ
Method: as §1

[5] = target: T5, His-tagged recombinant human BST2 protein K(47)-R(147) (human, UniProt Q10589 47-147); experiment: as above
T5 construct: Expressed in E. coli BL21(DE3); denatured and reduced for Western blotting; not shown: N-terminal His tag supplied by vector pET32
T5 sequence: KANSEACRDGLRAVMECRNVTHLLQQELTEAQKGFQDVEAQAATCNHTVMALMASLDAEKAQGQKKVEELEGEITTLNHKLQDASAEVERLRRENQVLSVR
Method: as §1

[6] = target: T6, His-tagged recombinant human BST2 protein E(133)-Q(180) (human, UniProt Q10589 133-180, not fully specified); experiment: as above
T6 construct: Expressed in E. coli BL21(DE3); denatured and reduced for Western blotting; not shown: N-terminal His tag supplied by vector pET32
T6 chain: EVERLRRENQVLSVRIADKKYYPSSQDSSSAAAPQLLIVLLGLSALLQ
Method: as §1

[7] = target: T7, His-tagged recombinant human BST2 protein A(132)-Q(180) (human, UniProt Q10589 132-180, not fully specified); experiment: as above
T7 construct: Expressed in E. coli BL21(DE3); denatured and reduced for Western blotting; also called lane 5: A(132)--Q(180); not shown: N-terminal His tag supplied by vector pET32
T7 chain: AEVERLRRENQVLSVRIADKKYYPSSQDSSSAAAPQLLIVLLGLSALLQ
Method: as §1

[8] = target: T8, His-tagged recombinant human BST2 protein K(47)-P(155) (human, UniProt Q10589 47-155); experiment: as above
T8 construct: Expressed in E. coli BL21(DE3); denatured and reduced for Western blotting; also called lane 3: K(47)----------P(155); not shown: N-terminal His tag supplied by vector pET32
T8 sequence: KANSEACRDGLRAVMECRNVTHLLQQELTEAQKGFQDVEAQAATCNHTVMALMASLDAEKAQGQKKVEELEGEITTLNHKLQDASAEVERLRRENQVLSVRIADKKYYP
Method: as §1

[9] = target: BST2 on human myeloma-derived RPMI8226 cells (human) (UniProt Q10589); experiment: flow cytometry on RPMI8226 cells, Kd calculated with Prism 4 from percentage of staining at 0.01-10 µg/ml
human BST2D = target: T9, human BST2D (human, UniProt Q10589 1-161); experiment: flow cytometry of hybridoma supernatant on 293T cells expressing human BST2D
T9 construct: Transmembrane glycoprotein, splicing variant D, 180 residues; also called type D BST2; BST2D-CHO cells
Method: The hybridoma culture supernatants were analyzed by flow cytometry (FCM). The cells prepared as described in A of Example 1 were suspended in 0.5% BSA/2 mM EDTA/PBS, and collected into centrifuge tubes at 1×10⁵ cells/sample. 40 μl of each hybridoma culture supernatant was added, and the tubes were incubated at room temperature for 30 minutes. Then, a 1-ml aliquot of 0.5% BSA/2 mM EDTA/PBS was added to each tube, the tubes were centrifuged for three minutes at 1200 rpm and 4° C., and the supernatants were discarded; this washing process was repeated twice. A 40-μl aliquot of 100× diluted FITC-labeled goat anti-mouse IgG antibody (Beckman coulter; IM0819) was added to each tube after washing. The tubes were incubated at room temperature for 30 minutes. Following two rounds of washing, the hybridoma culture supernatants were analyzed with flow cytometer FC500 (Beckman coulter) to assess whether the antibody in the supernatants could specifically recognize human BST2D. […] The selected hybridomas were cloned by the limiting dilution method. The resulting hybridomas producing mouse anti-human BST2 antibody were named #3LD, #4LD, #7LD, #9LD, and #19LD.

human BST2H = target: T10, human BST2H (human); experiment: flow cytometry on BST2H-CHO cells
T10 construct: Expressed from pcDNA3.1-hBST2H on CHO-K1 cells (BST2H-CHO line); Splicing variant H, 158 residues; also called type H BST2; BST2H-CHO cells
T10 chain: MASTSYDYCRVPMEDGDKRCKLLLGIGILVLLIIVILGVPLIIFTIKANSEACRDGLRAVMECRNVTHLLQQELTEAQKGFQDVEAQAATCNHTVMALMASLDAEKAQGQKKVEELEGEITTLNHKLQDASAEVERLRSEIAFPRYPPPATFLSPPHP

[10] = target: T11, His-tagged recombinant human BST2 protein K(47)-S(145) (human, UniProt Q10589 47-145); experiment: Western blot of His-tagged BST2 fragment
T11 construct: Expressed in E. coli BL21(DE3); denatured and reduced for Western blotting; also called lane 9: K(47)-S(145); not shown: N-terminal His tag supplied by vector pET32
T11 sequence: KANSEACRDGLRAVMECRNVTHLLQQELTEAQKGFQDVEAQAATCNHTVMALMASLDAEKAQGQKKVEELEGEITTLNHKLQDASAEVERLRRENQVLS
Method: as §1

[11] = target: T12, His-tagged recombinant human BST2 protein R(136)-Q(180) (human, UniProt Q10589 136-180, not fully specified); experiment: Western blot of His-tagged BST2 fragment
T12 construct: Expressed in E. coli BL21(DE3); denatured and reduced for Western blotting; also called lane 9: R(136)------Q(180); not shown: N-terminal His tag supplied by vector pET32
T12 chain: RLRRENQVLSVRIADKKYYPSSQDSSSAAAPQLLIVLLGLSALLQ
Method: as §1

[12] = target: T13, His-tagged recombinant human BST2 protein L(137)-Q(180) (human, UniProt Q10589 137-180, not fully specified); experiment: Western blot of His-tagged BST2 fragment
T13 construct: Expressed in E. coli BL21(DE3); denatured and reduced for Western blotting; also called lane 10: L(137)-------Q(180); not shown: N-terminal His tag supplied by vector pET32
T13 chain: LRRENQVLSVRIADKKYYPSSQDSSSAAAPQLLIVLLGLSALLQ
Method: as §1

[13] = target: T14, His-tagged recombinant human BST2 protein E(135)-Q(180) (human, UniProt Q10589 135-180, not fully specified); experiment: Western blot of His-tagged BST2 fragment
T14 construct: Expressed in E. coli BL21(DE3); denatured and reduced for Western blotting; also called lane 8: E(135)-----Q(180); not shown: N-terminal His tag supplied by vector pET32
T14 chain: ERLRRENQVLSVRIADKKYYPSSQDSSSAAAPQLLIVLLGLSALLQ
Method: as §1

[14] = target: T15, His-tagged recombinant human BST2 protein V(134)-Q(180) (human, UniProt Q10589 134-180, not fully specified); experiment: Western blot of His-tagged BST2 fragment
T15 construct: Expressed in E. coli BL21(DE3); denatured and reduced for Western blotting; also called lane 7: V(134)----Q(180); not shown: N-terminal His tag supplied by vector pET32
T15 chain: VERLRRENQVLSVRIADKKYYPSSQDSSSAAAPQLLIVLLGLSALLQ
Method: as §1

[15] = target: T16, His-tagged recombinant human BST2 protein K(47)-V(146) (human, UniProt Q10589 47-146); experiment: Western blot of His-tagged BST2 fragment
T16 construct: Expressed in E. coli BL21(DE3); denatured and reduced for Western blotting; also called lane 8: K(47)--V(146); not shown: N-terminal His tag supplied by vector pET32
T16 sequence: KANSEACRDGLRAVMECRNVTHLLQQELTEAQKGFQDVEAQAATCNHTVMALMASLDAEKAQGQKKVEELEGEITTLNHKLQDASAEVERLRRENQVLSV
Method: as §1

binding result [1]: binds
binding result [2]: binds
binding result [3]: binds
binding result [4]: binds
binding result [5]: binds
binding result [6]: binds
binding result [7]: binds
binding result [8]: binds
Kd [9]: 100 pM
binding result (human BST2D): binds
binding result (human BST2H): no binding
binding result [10]: no binding (tested: 1 µg/ml)
binding result [11]: no binding (tested: 1 µg/ml)
binding result [12]: no binding (tested: 1 µg/ml)
binding result [13]: no binding (tested: 1 µg/ml)
binding result [14]: no binding (tested: 1 µg/ml)
binding result [15]: no binding (tested: 1 µg/ml)
B1: mouse anti-human BST2 monoclonal antibody #4LD (antibody, V domains shown)
VH: DVQLQESGPGLVKPSQSLSLTCSVTGYSITSGYYWNWIRQFPGNKLEWMGYISYDGSNNYNPSLKNRISITRDTSKNQFFLKLNSVTTEDTATYYCAILGRGYWGQGTTLTVSS
VL: DIVLTQSPASLAVSLGQRATISCRASQSVSTSSYSYMHWYQQKPGQPPKLLIKYASNLESGVPARFSGSGSGTDFTLNIHPVEEEDTATYYCQHSWEIPYTFGGGTKLEIK
notes: Purified from hybridoma #4LD (FERM BP-10964); also called mouse antibody #4LD; anti-human BST2(D+/H-) antibody
